Results reported in patent US20240294623A1.

Target: antigen of FIG. 44 (not named)
Test: SPR (Biacore), Fab, FIG. 44

fold longer bound than the reference antibody: > 50 fold
t1/2: > 2.17 h
B1: Ab46 Fab (Fab, V domains shown)
VH: EVQLLESGGGLVQPGGSLRLSCAASGFTFADYAMTWVRQAPGKGLEWVSAISGSGAATYFADSVKGRFTISRDNSKNTLYLQMNSLRAEDTAVYYCARVSSGHWDYDYWGQGTLVTVSS
VL: DIQLTQSPSSLSASVGDRVTITCRASQSISSYLNWYQQKPGKAPKLLIYAASGLESGVPSRFSGSGSGTDFTLTISSLQPEDFATYYCQQTYGVPLTFGGGTKVEIK
